Measured values as given in patent US20030022353.

B1: Mch2β (protein)
chain: MSSASGLRRGHPAVSTVSHADADCFVCVFLSHGEGNHIYAYDAKIEIQTLTGLFKGDKCHSLVGKPKIFIIQACRGNQHDVPVIPLDVVDNQTEKLDTNITEVDAASVYTLPAGADFLMCYSVAEGYYSHRETVNGSWYIQDLCEMLGKYGSSLEFTELLTLVNRKVSQRRVDFCKDPSAIGKKQVPCFASMLTKKLHFFPKSN
B2: Mch2α (protein)
chain: MSSASGLRRGHPAGGEENMTETDAFYKREMFDPAEKYKMDHRRRGIALIFNHERFFWHLTLPERRRTCADRDNLTRRFSDLGFEVKCFNDLKAEELLLKIHEVSTVSHADADCFVCVFLSHGEGNHIYAYDAKIEIQTLTGLFKGDKCHSLVGKPKIFIIQACRGNQHDVPVIPLDVVDNQTEKLDTNITEVDAASVYTLPAGADFLMCYSVAEGYYSHRETVNGSWYIQDLCEMLGKYGSSLEFTELLTLVNRKVSQRRVDFCKDPSAIGKKQVPCFASMLTKKLHFFPKSN
B3: CPP32 (protein)
chain: MENTENSVDSKSIKNLEPKIIHGSESMDSGISLDNSYKMDYPEMGLCIIINNKNFHKSTGMTSRSGTDVDAANLRETFRNLKYEVRNKNDLTREEIVELMRDVSKEDHSKRSSFVCVLLSHGEEGIIFGTNGPVDLKKITNFFRGDRCRSLTGKPKLFIIQACRGTELDCGIETDSGVDDDMACHKIPVEADFLYAYSTAPGYYSWRNSKDGSWFIQSLCAMLKQYADKLEFMHILTRVNRKVATEFESFSFDATFHAKKQIPCIVSMLTKELYFYH
B4: ICEγ (protein)
chain: MADKVLKEKRKLFIRSMGEAPQAVQDNPAMPTSSGSEGNVKLCSLEEAQRIWKQKSAEIYPIMDKSSRTRLALIICNEEFDSIPRRTGAEVDITGMTMLLQNLGYSVDVKKNLTASDMTTELEAFAHRPEHKTSDSTFLVFMSHGIREGICGKKHSEQVPDILQLNAIFNMLNTKNCPSLKDKPKVIIIQACRGDSPGVVWFKDSVGVSGNLSLPTTEEFEDDAIKKAHIEKDFIAFCSSTPDNVSWRHPTMGSVFIGRLIEHMQEYACSCDVEEIFRKVRFSFEQPDGRAQMPTTERVTLTRCFYLFPGH

biological target: human PARP, P09874
Sequence (P09874 whole entry, looked up): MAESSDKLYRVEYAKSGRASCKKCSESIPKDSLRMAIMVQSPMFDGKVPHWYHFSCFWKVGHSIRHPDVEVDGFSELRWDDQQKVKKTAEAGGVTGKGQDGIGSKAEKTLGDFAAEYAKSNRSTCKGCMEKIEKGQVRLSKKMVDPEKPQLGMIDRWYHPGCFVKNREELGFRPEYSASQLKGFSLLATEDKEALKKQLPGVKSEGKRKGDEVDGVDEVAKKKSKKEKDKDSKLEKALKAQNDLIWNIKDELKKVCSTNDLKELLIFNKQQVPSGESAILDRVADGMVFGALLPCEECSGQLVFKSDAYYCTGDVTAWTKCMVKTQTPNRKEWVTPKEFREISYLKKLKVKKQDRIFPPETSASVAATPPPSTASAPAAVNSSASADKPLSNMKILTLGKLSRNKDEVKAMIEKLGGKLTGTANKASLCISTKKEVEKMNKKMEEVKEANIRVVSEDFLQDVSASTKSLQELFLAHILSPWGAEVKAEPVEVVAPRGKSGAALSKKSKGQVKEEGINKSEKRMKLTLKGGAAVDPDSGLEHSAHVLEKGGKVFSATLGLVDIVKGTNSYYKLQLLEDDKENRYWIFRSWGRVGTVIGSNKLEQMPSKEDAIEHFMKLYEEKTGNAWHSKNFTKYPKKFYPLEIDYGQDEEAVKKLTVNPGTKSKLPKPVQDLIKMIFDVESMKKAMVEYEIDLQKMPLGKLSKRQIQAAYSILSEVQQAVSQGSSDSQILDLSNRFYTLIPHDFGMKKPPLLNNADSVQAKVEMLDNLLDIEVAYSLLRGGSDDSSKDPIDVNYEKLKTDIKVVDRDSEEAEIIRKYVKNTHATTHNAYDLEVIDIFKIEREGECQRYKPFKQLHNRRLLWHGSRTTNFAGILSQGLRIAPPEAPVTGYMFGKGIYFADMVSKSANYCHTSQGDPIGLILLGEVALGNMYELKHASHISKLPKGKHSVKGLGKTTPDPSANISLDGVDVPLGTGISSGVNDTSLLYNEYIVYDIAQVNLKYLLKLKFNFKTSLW

| Protein | cleavage of PARP in vitro, Western blot |
| --- | --- |
| B1 | PARP was not cleaved by Mch2β or ICEγ |
| B2 | Mch2α also cleaved PAR: to generate a major product of ˜83 kDa and a minor product of ˜57 kDa similar to that obtained with CPP32 |
| B3 | CPP32 cleaved PARP to generate a major band of ˜90 kDa and a minor band of 57 kDa |
| B4 | PARP was not cleaved by Mch2β or ICEγ |
